Measurements: the RNAGym collection of RNA variant scans (doi:10.1093/molbev/msab373)

B1: Azoarcus group I ribozyme (parent)
chain: GUGCCUUGCGCCGGGAAACCACGCAAGGGAUGGUGUCAAAUUCGGCGAAACCUAAGCGCCCGCCCGGGCGUAUGGCAACGCCGAGCCAAGCUUCGGCGCCUGCGCCGAUGAAGGUGUAGAGACUAGACGGCACCCACCUAAGGCAAACGCUAUGGUGAAGGCAUAGUCCAGGGAGUGGCGAAAGUCACACAAACCGG

Variants of: B1
Assay: reverse-splicing fitness (ratio to wild type); higher = more active; in vitro selection; Mg2+ level not given
Procedure, shortened: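 An in vitro group I ribozyme library with randomized positions was T7-transcribed and gel-purified. In triplicate, 10 pmol RNA in EPPS pH 7.5 was reacted with 50 pmoles of a 30-nt RNA substrate for 1 h at 37 °C across several added MgCl2 levels (1–48 mM), then stopped with EDTA. Products were reverse transcribed from a substrate-complementary primer, PCR-amplified and sequenced (HiSeq 4000). Fitness is a variant's read proportion after selection over that before, normalised to wild type.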

Point of comparison: GUGCCUUGCGCCGGGAAACCACGCAAGGGAUGGUGUCAAAUUCGGCGAAACCUAAGCGCCCGCCCGGGCGUAUGGCAACGCCGAGCCAAGCUUCGGCGCCUGCGCCGAUGAAGGUGUAGGGACUAGACGGCACCCACCUAAGGCCAACGCUAUGGUGAAGGCAUAGUCGAGGGAGCGGCGAAAGUCACACAAACCGG [A120G A145C C169G U176C], reverse-splicing fitness 0.235. Against it:
- GUGCCUUGCGCCGGGAAACCACGCAAGGGAUGGUGUCAAAUUCGGCGAAACCUAAGCGCCCGCCCGGGCGUAUGGCAACGCCGAGCCAAGCUUCGGCGCCUGCGCCGAUGAAGGUGUAGGGACUAGACGGCACCCACCUAAGGCCAACGUUAUGGUGAAGGCAUAGUCCAGGGAGGGGCGAAAGUCACACAAACCGG [A120G A145C C150U U176G] — lower, 0.0108
- GUGCCUUGCGCCGGGAAACCACGCAAGGGAUGGUGUCAAAUUCGGCGAAACCUAAGCGCCCGCCCGGGCGUAUGGCAACGCCGAGCCAAGCUUCGGCGCCUGCGCCGAUGAAGGUGUAGGGACUAGACGGCACCCACCUAAGGCCAACGCUAUGGUGAAGGCAUAGUCAAGGGAGUGGCGAAAGUCACACAAACCGG [A120G A145C C169A] — higher, 0.41
- GUGCCUUGCGCCGGGAAACCACGCAAGGGAUGGUGUCAAAUUCGGCGAAACCUAAGCGCCCGCCCGGGCGUAUGGCAACGCCGAGCCAAGCUUCGGCGCCUGCGCCGAUGAAGGUGUAGGGACUAGACGGCACCCACCUAAGGCCAACGCUAUGGUGAAGGCAUAGUCAAGGGAGAGGCGAAAGUCACACAAACCGG [A120G A145C C169A U176A] — lower, 0.0967
- GUGCCUUGCGCCGGGAAACCACGCAAGGGAUGGUGUCAAAUUCGGCGAAACCUAAGCGCCCGCCCGGGCGUAUGGCAACGCCGAGCCAAGCUUCGGCGCCUGCGCCGAUGAAGGUGUAGGGACUAGACGGCACCCACCUAAGGCCAACGCUAUGGUGAAGGCAUAGUCAAGGGAGCGGCGAAAGUCACACAAACCGG [A120G A145C C169A U176C] — lower, 0.157
- GUGCCUUGCGCCGGGAAACCACGCAAGGGAUGGUGUCAAAUUCGGCGAAACCUAAGCGCCCGCCCGGGCGUAUGGCAACGCCGAGCCAAGCUUCGGCGCCUGCGCCGAUGAAGGUGUAGGGACUAGACGGCACCCACCUAAGGCCAACGCUAUGGUGAAGGCAUAGUCAAGGGAGGGGCGAAAGUCACACAAACCGG [A120G A145C C169A U176G] — lower, 0.0075
- GUGCCUUGCGCCGGGAAACCACGCAAGGGAUGGUGUCAAAUUCGGCGAAACCUAAGCGCCCGCCCGGGCGUAUGGCAACGCCGAGCCAAGCUUCGGCGCCUGCGCCGAUGAAGGUGUAGGGACUAGACGGCACCCACCUAAGGCCAACGCUAUGGUGAAGGCAUAGUCGAGGGAGUGGCGAAAGUCACACAAACCGG [A120G A145C C169G] — higher, 0.614
- GUGCCUUGCGCCGGGAAACCACGCAAGGGAUGGUGUCAAAUUCGGCGAAACCUAAGCGCCCGCCCGGGCGUAUGGCAACGCCGAGCCAAGCUUCGGCGCCUGCGCCGAUGAAGGUGUAGGGACUAGACGGCACCCACCUAAGGCCAACGCUAUGGUGAAGGCAUAGUCGAGGGAGAGGCGAAAGUCACACAAACCGG [A120G A145C C169G U176A] — lower, 0.202
- GUGCCUUGCGCCGGGAAACCACGCAAGGGAUGGUGUCAAAUUCGGCGAAACCUAAGCGCCCGCCCGGGCGUAUGGCAACGCCGAGCCAAGCUUCGGCGCCUGCGCCGAUGAAGGUGUAGGGACUAGACGGCACCCACCUAAGGCCAACGCUAUGGUGAAGGCAUAGUCGAGGGAGGGGCGAAAGUCACACAAACCGG [A120G A145C C169G U176G] — lower, 0.0119
- GUGCCUUGCGCCGGGAAACCACGCAAGGGAUGGUGUCAAAUUCGGCGAAACCUAAGCGCCCGCCCGGGCGUAUGGCAACGCCGAGCCAAGCUUCGGCGCCUGCGCCGAUGAAGGUGUAGGGACUAGACGGCACCCACCUAAGGCCAACGCUAUGGUGAAGGCAUAGUCUAGGGAGUGGCGAAAGUCACACAAACCGG [A120G A145C C169U] — higher, 0.435
- GUGCCUUGCGCCGGGAAACCACGCAAGGGAUGGUGUCAAAUUCGGCGAAACCUAAGCGCCCGCCCGGGCGUAUGGCAACGCCGAGCCAAGCUUCGGCGCCUGCGCCGAUGAAGGUGUAGGGACUAGACGGCACCCACCUAAGGCCAACGCUAUGGUGAAGGCAUAGUCUAGGGAGAGGCGAAAGUCACACAAACCGG [A120G A145C C169U U176A] — lower, 0.181
- GUGCCUUGCGCCGGGAAACCACGCAAGGGAUGGUGUCAAAUUCGGCGAAACCUAAGCGCCCGCCCGGGCGUAUGGCAACGCCGAGCCAAGCUUCGGCGCCUGCGCCGAUGAAGGUGUAGGGACUAGACGGCACCCACCUAAGGCCAACGCUAUGGUGAAGGCAUAGUCUAGGGAGCGGCGAAAGUCACACAAACCGG [A120G A145C C169U U176C] — lower, 0.19
- GUGCCUUGCGCCGGGAAACCACGCAAGGGAUGGUGUCAAAUUCGGCGAAACCUAAGCGCCCGCCCGGGCGUAUGGCAACGCCGAGCCAAGCUUCGGCGCCUGCGCCGAUGAAGGUGUAGGGACUAGACGGCACCCACCUAAGGCCAACGCUAUGGUGAAGGCAUAGUCUAGGGAGGGGCGAAAGUCACACAAACCGG [A120G A145C C169U U176G] — lower, 0.0181
- GUGCCUUGCGCCGGGAAACCACGCAAGGGAUGGUGUCAAAUUCGGCGAAACCUAAGCGCCCGCCCGGGCGUAUGGCAACGCCGAGCCAAGCUUCGGCGCCUGCGCCGAUGAAGGUGUAGGGACUAGACGGCACCCACCUAAGGCCAACGCUAUGGUGAAGGCAUAGUCCAGGGAGAGGCGAAAGUCACACAAACCGG [A120G A145C U176A] — lower, 0.179
- GUGCCUUGCGCCGGGAAACCACGCAAGGGAUGGUGUCAAAUUCGGCGAAACCUAAGCGCCCGCCCGGGCGUAUGGCAACGCCGAGCCAAGCUUCGGCGCCUGCGCCGAUGAAGGUGUAGGGACUAGACGGCACCCACCUAAGGCCAACGCUAUGGUGAAGGCAUAGUCCAGGGAGCGGCGAAAGUCACACAAACCGG [A120G A145C U176C] — lower, 0.227
